Columns and labels:
GST-hsGSK3β = GST-hsGSK3β (UniProt P49841)
GST-BIN2 = biological target: T1, GST-BIN2 (UniProt Q39011)
T1 sequence: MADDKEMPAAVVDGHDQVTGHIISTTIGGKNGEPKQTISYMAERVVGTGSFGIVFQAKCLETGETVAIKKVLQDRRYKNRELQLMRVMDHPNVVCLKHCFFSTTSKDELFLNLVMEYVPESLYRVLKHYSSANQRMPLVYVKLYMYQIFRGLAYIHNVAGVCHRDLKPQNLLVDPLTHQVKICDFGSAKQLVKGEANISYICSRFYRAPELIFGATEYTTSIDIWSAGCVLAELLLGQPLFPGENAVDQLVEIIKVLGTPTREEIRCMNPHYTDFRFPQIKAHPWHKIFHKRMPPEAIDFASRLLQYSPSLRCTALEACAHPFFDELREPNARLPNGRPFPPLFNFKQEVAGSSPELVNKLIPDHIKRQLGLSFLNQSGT

GST-hsGSK3β, sequence (P49841 whole entry, looked up): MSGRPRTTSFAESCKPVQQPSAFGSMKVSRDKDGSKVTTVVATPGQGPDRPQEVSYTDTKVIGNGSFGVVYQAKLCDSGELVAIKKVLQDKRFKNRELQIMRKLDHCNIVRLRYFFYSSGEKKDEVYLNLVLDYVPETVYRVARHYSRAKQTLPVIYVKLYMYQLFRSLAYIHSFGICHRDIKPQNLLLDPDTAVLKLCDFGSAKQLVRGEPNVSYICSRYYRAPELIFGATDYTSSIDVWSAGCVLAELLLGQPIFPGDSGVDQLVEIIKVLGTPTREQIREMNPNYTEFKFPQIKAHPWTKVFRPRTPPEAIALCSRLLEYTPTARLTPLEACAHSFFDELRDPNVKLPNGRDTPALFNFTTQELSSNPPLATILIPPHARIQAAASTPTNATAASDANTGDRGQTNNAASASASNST

Row | Substance | phosphorylation status of tyrosine 216 of hsGSK3β (immunoblot with anti-phospho-tyrosine 216 antibody) (GST-hsGSK3β) | dephosphorylation of BIN2 tyrosine200 (GST-BIN2)
1 | MBP-hsPPP1cc | human protein phosphatase 1 gamma (PP1γ) dephosphorylates tyrosine 216 of human GSK3 beta in vitro | –
2 | PP1 purified from E. coli | – | The presence of PP1 increased dephosphorylation of BIN2 tyrosine200
